# Reference: patent US20210332115A1 (Sanofi, published 2021)
# Read-outs that look alike come from different tables or passages of the source.
# Tests used:
# [1] = molecular target: T1, Homo sapiens factor Bb protein (human, UniProt P00751 260-764); test: SPR single cycle kinetics; ratio against VH0/Vκ0
# T1 construct: Bought from CompTech (A155); also called complement factor Bb; human factor Bb
# Procedure: All single cycle kinetic experiments were run at 25° C. with HBS-P+running buffer (pH 7. 4) (GE Healthcare, Little Chalfont, UK).
# (§1) Antibodies were diluted in running buffer to a final concentration of 1 μg/ml, based on concentrations assessed by ELISA titer. At the start of each cycle, antibodies were loaded onto Fc2, Fc3 and Fc4 of the Protein A chip (GE Healthcare, Little Chalfont, UK). IgGs were captured at a flow rate of 10 μl/min to give an immobilization level (RL) of ˜63 RU, the theoretical value to obtain an Rmax of ˜50 RU. The surface was then allowed to stabilize. Single cycle kinetic data was obtained with factor Bb (CompTech, Tyler, USA) as the analyte at a flow rate of 30 μl/min to minimize any potential mass transport limitations. Multiple repeats with the reference chimeric antibody were performed to check the stability of the surface and analyte over the kinetic cycles. The signal from the reference channel Fc1 (no antibody) was subtracted from that of Fc2, Fc3 and Fc4 to correct for differences in non-specific binding to a reference surface. A four point, two-fold dilution range from 0. 78 nM to 6. 25 nM factor Bb without regeneration between each concentration was used. The association phase for the four injections of increasing concentrations of factor Bb was monitored for 200 seconds each time and a single dissociation phase was measured for 200 seconds following the last injection of factor Bb. Regeneration of the Protein A surface was conducted using two injections of 10 mM glycine-HCL pH 1. 5.
# Single cycle kinetics using cell culture supernatants were performed as described above. […] The relative KD was calculated by dividing the KD of the VH0/Vκ0 reference antibody by that of the humanized variant assayed in the same experiment.
# [2] = molecular target: T1, Homo sapiens factor Bb protein; test: SPR single cycle kinetics, IgG on Protein A chip, factor Bb analyte
# Procedure: (§2) In order to assess the binding of all humanized variants, single cycle kinetic analysis was performed on supernatants from transfected cell cultures. […] All single cycle kinetic experiments were run at 25° C. with HBS-P+running buffer (pH 7. 4) (GE Healthcare, Little Chalfont, UK).
# as §1
# Single cycle kinetics using cell culture supernatants were performed as described above.
# [3] = molecular target: T1, Homo sapiens factor Bb protein; test: SPR single cycle kinetics; ratio against VH0/Vκ0; remark: listed apart in the source
# Procedure: as §2, §1
# (§3) The sensorgrams and fitted data for the single cycle kinetics are shown in FIGS. 1A-1D and the kinetic parameters measured for the interaction of factor Bb with each antibody are shown in Table 7. The relative KD was calculated by dividing the KD of the VH0/Vκ0 reference antibody by that of the humanized variant assayed in the same experiment.
# [4] = molecular target: T1, Homo sapiens factor Bb protein; test: SPR single cycle kinetics, IgG on Protein A chip, factor Bb analyte; remark: listed apart in the source
# Procedure: as §2, §1, §3
# [5] = molecular target: T1, Homo sapiens factor Bb protein; test: BLI Octet, biotinylated antibody on SA biosensors
# Procedure: Briefly, biotinylated antibodies were loaded onto SA Biosensors equilibrated in PBS, 0.1% BSA, 0.02% Tween-20 (assay buffer). After a 60 second baseline in assay buffer, antibodies were loaded onto the probes for 180 seconds, followed by another 60 second baseline. Association to human (Comptech) or cynomolgus monkey factor Bb (purified in-house) was measured for 300 seconds, followed by a 300 second dissociation. Kinetic parameters were calculated by the Octet Analysis software using a 1:1 binding model.
# T1 sequence (P00751 260-764 limits assumed): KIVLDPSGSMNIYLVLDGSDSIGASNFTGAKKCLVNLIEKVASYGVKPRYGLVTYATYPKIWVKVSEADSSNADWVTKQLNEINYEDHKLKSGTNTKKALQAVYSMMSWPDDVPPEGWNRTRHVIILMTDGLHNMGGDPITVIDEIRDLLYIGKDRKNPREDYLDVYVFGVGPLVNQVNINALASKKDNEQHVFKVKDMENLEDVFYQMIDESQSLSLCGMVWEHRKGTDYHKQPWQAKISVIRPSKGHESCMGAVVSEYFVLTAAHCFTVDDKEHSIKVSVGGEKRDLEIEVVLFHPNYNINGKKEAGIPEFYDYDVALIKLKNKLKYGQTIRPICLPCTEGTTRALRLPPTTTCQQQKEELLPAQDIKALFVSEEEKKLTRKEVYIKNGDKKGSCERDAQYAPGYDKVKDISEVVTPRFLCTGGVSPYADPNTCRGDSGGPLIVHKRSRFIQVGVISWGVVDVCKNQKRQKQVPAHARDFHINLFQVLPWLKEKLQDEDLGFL
Binder,Relative KD [1],Kd [2] [nM],koff [2] [s⁻¹],kon [2] [M⁻¹ s⁻¹],Relative KD [3],Kd [4] [nM],koff [4] [s⁻¹],kon [4] [M⁻¹ s⁻¹],Kd [5] [nM]
"VH5/Vκ0 (antibody, V domains shown, Control antibody of the redesign round; cloned into the appropriate expression vector (IgG4v1 and kappa were used in the first round), HEK EBNA supernatant) VH: EVQLVESGGGLVKPGGSLRLSCAASGFTFSNYAMSWVRQTPEKRLEWVATISNRGSYTYYPDSVKGRFTISRDNAKNSLYLQMSSLRSEDTALYYCARERPMDYWGQGTSVTVSS VL: DIVMTQSHKFMSTSVGDRVSITCKASQDVGTAVAWYQQKPGQSPKLLIYWASTRHTGVPDRFTGSGSGTDFTLTITNVQSEDLAVYFCHQHSSNPLTFGAGTKLELK",235,416,0.00145,3490,,,,,
"VH1/Vκ0 (control) (antibody, V domains shown) VH: EVQLVESGGGLVKPGGSLRLSCAASGFTFSNYAMSWVRQAPGKGLEWVATISNRGSYTYYPDSVKGRFTISRDNAKNSLYLQMSSLRSEDTALYYCARERPMDYWGQGTSVTVSS VL: DIVMTQSHKFMSTSVGDRVSITCKASQDVGTAVAWYQQKPGQSPKLLIYWASTRHTGVPDRFTGSGSGTDFTLTITNVQSEDLAVYFCHQHSSNPLTFGAGTKLELK",,,,,1.76,3.09,0.00116,376000,
"VH7/Vκ0 (antibody, V domains shown, Control antibody of the redesign round; cloned into the appropriate expression vector (IgG4v1 and kappa were used in the first round), HEK EBNA supernatant) VH: EVQLVESGGGLVKPGGSLRLSCAASGFTFSNYAMSWVRQTPEKRLEWVATISNRGSYTYYPDSVKGRFTISRDNAKNSLYLQMNSLRAEDTALYYCARERPMDYWGQGTLVTVSS VL: DIVMTQSHKFMSTSVGDRVSITCKASQDVGTAVAWYQQKPGQSPKLLIYWASTRHTGVPDRFTGSGSGTDFTLTITNVQSEDLAVYFCHQHSSNPLTFGAGTKLELK",4.25,7.53,0.00207,274000,,,,,
"VH6/Vκ0 (antibody, V domains shown, Control antibody of the redesign round; cloned into the appropriate expression vector (IgG4v1 and kappa were used in the first round), HEK EBNA supernatant) VH: EVQLVESGGGLVKPGGSLRLSCAASGFTFSNYAMSWVRQAPGKRLEWVATISNRGSYTYYPDSVKGRFTISRDNAKNSLYLQMNSLRAEDTALYYCARERPMDYWGQGTLVTVSS VL: DIVMTQSHKFMSTSVGDRVSITCKASQDVGTAVAWYQQKPGQSPKLLIYWASTRHTGVPDRFTGSGSGTDFTLTITNVQSEDLAVYFCHQHSSNPLTFGAGTKLELK",1.86,3.29,0.00197,598000,,,,,
"VH7/Vκ6 (antibody, V domains shown, Redesigned variant; cloned into the appropriate expression vector (IgG4v1 and kappa were used in the first round), HEK EBNA supernatant) VH: EVQLVESGGGLVKPGGSLRLSCAASGFTFSNYAMSWVRQTPEKRLEWVATISNRGSYTYYPDSVKGRFTISRDNAKNSLYLQMNSLRAEDTALYYCARERPMDYWGQGTLVTVSS VL: DIVMTQSPSFLSASVGDRVTITCKASQDVGTAVAWYQQKPGKAPKLLIYWASTRHTGVPDRFTGSGSGTDFTLTISSLQSEDFAVYFCHQHSSNPLTFGQGTKLEIK",10.2,18,0.00303,168000,,,,,
"VH0/Vκ6 (antibody, V domains shown, Control antibody of the redesign round; cloned into the appropriate expression vector (IgG4v1 and kappa were used in the first round), HEK EBNA supernatant) VH: EVQLVESGGALVKPGGSLKLSCAASGFTFSNYAMSWVRQTPEKRLEWVATISNRGSYTYYPDSVKGRFTISRDNAKNTLYLQMSSLRSEDTALYYCARERPMDYWGQGTSVTVSS VL: DIVMTQSPSFLSASVGDRVTITCKASQDVGTAVAWYQQKPGKAPKLLIYWASTRHTGVPDRFTGSGSGTDFTLTISSLQSEDFAVYFCHQHSSNPLTFGQGTKLEIK",1.34,2.37,0.00126,534000,,,,,
"VH5/Vκ6 (antibody, V domains shown, Redesigned variant; cloned into the appropriate expression vector (IgG4v1 and kappa were used in the first round), HEK EBNA supernatant) VH: EVQLVESGGGLVKPGGSLRLSCAASGFTFSNYAMSWVRQTPEKRLEWVATISNRGSYTYYPDSVKGRFTISRDNAKNSLYLQMSSLRSEDTALYYCARERPMDYWGQGTSVTVSS VL: DIVMTQSPSFLSASVGDRVTITCKASQDVGTAVAWYQQKPGKAPKLLIYWASTRHTGVPDRFTGSGSGTDFTLTISSLQSEDFAVYFCHQHSSNPLTFGQGTKLEIK",73.5,130,0.0173,133000,,,,,
"VH0/Vκ7 (antibody, V domains shown, Control antibody of the redesign round; cloned into the appropriate expression vector (IgG4v1 and kappa were used in the first round), HEK EBNA supernatant) VH: EVQLVESGGALVKPGGSLKLSCAASGFTFSNYAMSWVRQTPEKRLEWVATISNRGSYTYYPDSVKGRFTISRDNAKNTLYLQMSSLRSEDTALYYCARERPMDYWGQGTSVTVSS VL: DIQMTQSPSTLSASVGDRVTITCKASQDVGTAVAWYQQKPGKAPKLLIYWASTRHTGVPDRFSGSGSGTDFTLTISSLQAEDFAVYFCHQHSSNPLTFGQGTKLEIK",1.19,2.11,0.00105,496000,,,,,

# More lines, now with the values ahead:
Relative KD [1],Kd [2] [nM],koff [2] [s⁻¹],kon [2] [M⁻¹ s⁻¹],Relative KD [3],Kd [4] [nM],koff [4] [s⁻¹],kon [4] [M⁻¹ s⁻¹],Kd [5] [nM],Binder
1.28,2.27,0.00128,563000,,,,,,"VH0/Vκ3 (antibody, V domains shown, constant regions not restated, the humanisation used IgG4v1 heavy chain and kappa light chain vectors) VH: EVQLVESGGALVKPGGSLKLSCAASGFTFSNYAMSWVRQTPEKRLEWVATISNRGSYTYYPDSVKGRFTISRDNAKNTLYLQMSSLRSEDTALYYCARERPMDYWGQGTSVTVSS VL: DIQMTQSPSTLSASVGDRVTITCKASQDVGTAVAWYQQKPGQPPKLLIYWASTRHTGVPDRFSGSGSGTDFTLTISSLQAEDFAVYFCHQHSSNPLTFGQGTKLEIK"
,,,,,,,,1.9,"Anti-factor Bb mouse monoclonal antibody (antibody, V domains shown, Mouse monoclonal antibody from a hybridoma; also called murine parental antibody; parent anti-factor Bb antibody) VH: EVQLVESGGALVKPGGSLKLSCAASGFTFSNYAMSWVRQTPEKRLEWVATISNRGSYTYYPDSVKGRFTISRDNAKNTLYLQMSSLRSEDTALYYCARERPMDYWGQGTSVTVSS VL: DIVMTQSHKFMSTSVGDRVSITCKASQDVGTAVAWYQQKPGQSPKLLIYWASTRHTGVPDRFTGSGSGTDFTLTITNVQSEDLAVYFCHQHSSNPLTFGAGTKLELK"
294,521,0.00166,3200,,,,,,"VH5/Vκ7 (antibody, V domains shown, Redesigned variant; cloned into the appropriate expression vector (IgG4v1 and kappa were used in the first round), HEK EBNA supernatant) VH: EVQLVESGGGLVKPGGSLRLSCAASGFTFSNYAMSWVRQTPEKRLEWVATISNRGSYTYYPDSVKGRFTISRDNAKNSLYLQMSSLRSEDTALYYCARERPMDYWGQGTSVTVSS VL: DIQMTQSPSTLSASVGDRVTITCKASQDVGTAVAWYQQKPGKAPKLLIYWASTRHTGVPDRFSGSGSGTDFTLTISSLQAEDFAVYFCHQHSSNPLTFGQGTKLEIK"
